Assay results taken from publication PMC2756588.

T1: Abp1, P15891
T1 sequence (P15891 535-592, looked up): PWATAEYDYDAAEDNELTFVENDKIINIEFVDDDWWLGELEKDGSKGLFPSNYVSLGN

T2: Bbc1, P47068
T2 sequence (P47068 1-78, looked up): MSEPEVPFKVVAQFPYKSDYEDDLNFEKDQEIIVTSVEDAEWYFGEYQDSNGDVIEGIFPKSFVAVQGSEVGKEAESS

T3: Boi1, P38041
T3 sequence (P38041 1-86, looked up): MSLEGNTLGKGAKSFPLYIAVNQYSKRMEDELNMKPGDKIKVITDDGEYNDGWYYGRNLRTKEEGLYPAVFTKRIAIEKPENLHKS

T4: Boi2, P39969
T4 sequence (P39969 32-116, looked up): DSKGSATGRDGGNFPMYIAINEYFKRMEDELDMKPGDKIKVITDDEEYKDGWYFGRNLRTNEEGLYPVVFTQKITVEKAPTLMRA

T5: Bud14, P27637
T5 sequence (P27637 247-328, looked up): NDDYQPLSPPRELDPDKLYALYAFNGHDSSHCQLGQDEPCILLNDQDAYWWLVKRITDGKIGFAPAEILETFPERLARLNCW

T6: Bzz1-1, P38822
T6 sequence (P38822 478-572, looked up): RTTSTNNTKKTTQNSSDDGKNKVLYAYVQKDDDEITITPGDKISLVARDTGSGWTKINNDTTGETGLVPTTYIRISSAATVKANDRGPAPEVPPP

T7: Bzz1-2, P38822
T7 sequence (P38822 568-633, looked up): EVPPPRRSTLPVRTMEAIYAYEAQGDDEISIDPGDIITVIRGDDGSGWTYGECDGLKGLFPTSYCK

T8: Cdc25, P04821
T8 sequence (P04821 50-136, looked up): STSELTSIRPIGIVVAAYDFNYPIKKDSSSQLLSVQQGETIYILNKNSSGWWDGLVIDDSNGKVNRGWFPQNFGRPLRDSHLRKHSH

T9: Cyk3, Q07533
T9 sequence (Q07533 1-83, looked up): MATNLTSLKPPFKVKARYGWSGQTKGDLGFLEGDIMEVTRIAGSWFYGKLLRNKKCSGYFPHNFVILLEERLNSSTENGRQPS

T10: Fus1, P11710
T10 sequence (P11710 432-512, looked up): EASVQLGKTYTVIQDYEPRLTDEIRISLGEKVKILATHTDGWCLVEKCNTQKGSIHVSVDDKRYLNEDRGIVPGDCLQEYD

T11: Hof1, Q05080
T11 sequence (Q05080 590-669, looked up): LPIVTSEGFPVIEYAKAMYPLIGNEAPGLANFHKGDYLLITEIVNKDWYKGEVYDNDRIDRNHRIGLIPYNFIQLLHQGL

T12: Hse1, P38753
T12 sequence (P38753 208-285, looked up): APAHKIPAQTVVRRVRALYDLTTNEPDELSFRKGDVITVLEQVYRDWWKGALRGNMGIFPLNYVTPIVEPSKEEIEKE

T13: Lsb1, P53281
T13 sequence (P53281 45-122, looked up): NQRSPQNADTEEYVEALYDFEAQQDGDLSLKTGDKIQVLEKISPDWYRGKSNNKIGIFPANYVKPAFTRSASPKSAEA

T14: Lsb3, P43603
T14 sequence (P43603 385-451, looked up): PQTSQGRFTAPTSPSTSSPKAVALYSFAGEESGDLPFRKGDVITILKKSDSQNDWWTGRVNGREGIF

T15: Lsb4, P32793
T15 sequence (P32793 402-468, looked up): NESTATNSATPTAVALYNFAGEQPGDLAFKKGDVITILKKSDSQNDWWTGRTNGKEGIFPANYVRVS

T16: Myo5, Q04439
T16 sequence (Q04439 1072-1160, looked up): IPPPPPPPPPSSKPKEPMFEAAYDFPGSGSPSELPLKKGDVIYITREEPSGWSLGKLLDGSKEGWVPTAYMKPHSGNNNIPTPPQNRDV

T17: Nbp2, Q12163
T17 sequence (Q12163 103-180, looked up): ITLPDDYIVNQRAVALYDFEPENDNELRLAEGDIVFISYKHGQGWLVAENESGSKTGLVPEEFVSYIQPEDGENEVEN

T18: Pex13, P80667
T18 sequence (P80667 295-386, looked up): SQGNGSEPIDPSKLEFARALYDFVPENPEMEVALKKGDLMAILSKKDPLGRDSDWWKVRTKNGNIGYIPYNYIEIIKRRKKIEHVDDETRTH

T19: Pin3, Q06449
T19 sequence (Q06449 53-122, looked up): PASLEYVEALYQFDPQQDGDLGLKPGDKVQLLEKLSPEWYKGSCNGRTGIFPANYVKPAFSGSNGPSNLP

T20: Sla1-2, P32790
T20 sequence (P32790 60-140, looked up): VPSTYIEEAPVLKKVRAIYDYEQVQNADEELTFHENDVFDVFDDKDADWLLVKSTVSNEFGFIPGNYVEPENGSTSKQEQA

T21: Sla1-3, P32790
T21 sequence (P32790 344-424, looked up): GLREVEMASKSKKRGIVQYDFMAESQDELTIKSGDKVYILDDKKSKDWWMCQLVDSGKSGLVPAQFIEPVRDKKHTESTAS


Columns and labels:
Assay in all cases: SPOT array
Abp1, P15891 = target: T1, Abp1, P15891; details: median of control spots 935
Bbc1, P47068 = target: T2, Bbc1, P47068; details: median of control spots 796
Bem1-1, P29366 = details: median of control spots 4282
Bem1-2, P29366 = details: median of control spots 4347
Boi1, P38041 = target: T3, Boi1, P38041; details: median of control spots 1162
Boi2, P39969 = target: T4, Boi2, P39969; details: median of control spots 1161
Bud14, P27637 = target: T5, Bud14, P27637; details: median of control spots 956
Bzz1-1, P38822 = target: T6, Bzz1-1, P38822; details: median of control spots 4446
Bzz1-2, P38822 = target: T7, Bzz1-2, P38822; details: median of control spots 4538
Cdc25, P04821 = target: T8, Cdc25, P04821; details: median of control spots 969
Cyk3, Q07533 = target: T9, Cyk3, Q07533; details: median of control spots 1451
Fus1, P11710 = target: T10, Fus1, P11710; details: median of control spots 1200
GST = details: median of control spots 978
Hof1, Q05080 = target: T11, Hof1, Q05080; details: median of control spots 4086
Hse1, P38753 = target: T12, Hse1, P38753; details: median of control spots 1727
Lsb1, P53281 = target: T13, Lsb1, P53281; details: median of control spots 388
Lsb3, P43603 = target: T14, Lsb3, P43603; details: median of control spots 406
Lsb4, P32793 = target: T15, Lsb4, P32793; details: median of control spots 397
Myo3, P36006 = details: median of control spots 468
Myo5, Q04439 = target: T16, Myo5, Q04439; details: median of control spots 471
Nbp2, Q12163 = target: T17, Nbp2, Q12163; details: median of control spots 357
Pex13, P80667 = target: T18, Pex13, P80667; details: median of control spots 1341
Pin3, Q06449 = target: T19, Pin3, Q06449; details: median of control spots 2171
Rvs167, P39743 = details: median of control spots 2707
Sho1, P40073 = details: median of control spots 1148
Sla1-2, P32790 = target: T20, Sla1-2, P32790; details: median of control spots 712
Sla1-3, P32790 = target: T21, Sla1-3, P32790; details: median of control spots 5475

Chain of Bem1-2, P29366 (P29366 139-227): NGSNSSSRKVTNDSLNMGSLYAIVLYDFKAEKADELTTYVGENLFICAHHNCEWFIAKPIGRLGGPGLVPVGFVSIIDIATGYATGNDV
Chain of Sho1, P40073 (P40073 287-367): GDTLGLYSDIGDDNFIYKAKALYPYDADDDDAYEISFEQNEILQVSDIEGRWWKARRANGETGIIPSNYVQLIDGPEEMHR
Chain of Bem1-1, P29366 (P29366 55-141): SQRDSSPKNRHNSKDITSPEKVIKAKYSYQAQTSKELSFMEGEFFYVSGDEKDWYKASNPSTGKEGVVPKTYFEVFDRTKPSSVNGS
Chain of Rvs167, P39743 (P39743 419-482): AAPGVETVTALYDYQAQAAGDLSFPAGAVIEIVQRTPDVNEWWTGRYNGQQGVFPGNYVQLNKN

| Binder | SPOT intensity (Abp1, P15891) | SPOT intensity (Bbc1, P47068) | SPOT intensity (Bem1-1, P29366) | SPOT intensity (Bem1-2, P29366) | SPOT intensity (Boi1, P38041) | SPOT intensity (Boi2, P39969) | SPOT intensity (Bud14, P27637) | SPOT intensity (Bzz1-1, P38822) | SPOT intensity (Bzz1-2, P38822) | SPOT intensity (Cdc25, P04821) | SPOT intensity (Cyk3, Q07533) | SPOT intensity (Fus1, P11710) | SPOT intensity (GST) | SPOT intensity (Hof1, Q05080) | SPOT intensity (Hse1, P38753) | SPOT intensity (Lsb1, P53281) | SPOT intensity (Lsb3, P43603) | SPOT intensity (Lsb4, P32793) | SPOT intensity (Myo3, P36006) | SPOT intensity (Myo5, Q04439) | further results |
| --- | --- | --- | --- | --- | --- | --- | --- | --- | --- | --- | --- | --- | --- | --- | --- | --- | --- | --- | --- | --- | --- |
| RLSFFFPLDPAYIRN | 28 | 12 | 0 | 43 | 6 | 0 | 12 | 0 | 3 | 28 | 1 | 159 | 1 | 48 | 91 | 0 | 0 | 0 | 4 | 0 | SPOT intensity (Nbp2, Q12163): 21; SPOT intensity (Pex13, P80667): 21; SPOT intensity (Pin3, Q06449): 13; SPOT intensity (Rvs167, P39743): 0; SPOT intensity (Sho1, P40073): 68; SPOT intensity (Sla1-2, P32790): 0; SPOT intensity (Sla1-3, P32790): 113 |
| GTIARPLFLVVLFFI | 0 | 0 | 0 | 1 | 4 | 1 | 8 | 0 | 0 | 18 | 1 | 9 | 1 | 0 | 0 | 0 | 0 | 0 | 1 | 0 | SPOT intensity (Nbp2, Q12163): 0; SPOT intensity (Pex13, P80667): 11; SPOT intensity (Pin3, Q06449): 3; SPOT intensity (Rvs167, P39743): 0; SPOT intensity (Sho1, P40073): 0; SPOT intensity (Sla1-2, P32790): 0; SPOT intensity (Sla1-3, P32790): 0 |
| NAGIRPKFILALNDE | 16 | 24 | 0 | 0 | 8 | 2 | 26 | 2 | 6 | 22 | 1 | 0 | 0 | 1 | 2 | 0 | 0 | 0 | 0 | 0 | SPOT intensity (Nbp2, Q12163): 2; SPOT intensity (Pex13, P80667): 10; SPOT intensity (Pin3, Q06449): 3; SPOT intensity (Rvs167, P39743): 4; SPOT intensity (Sho1, P40073): 31; SPOT intensity (Sla1-2, P32790): 1; SPOT intensity (Sla1-3, P32790): 2 |
| HHKRRPTTIDVPGLT | 26 | 2 | 22 | 28 | 2 | 1 | 8 | 0 | 13 | 42 | 0 | 180 | 0 | 6 | 3 | 1 | 3 | 5 | 7 | 4 | SPOT intensity (Nbp2, Q12163): 1; SPOT intensity (Pex13, P80667): 18; SPOT intensity (Pin3, Q06449): 28; SPOT intensity (Rvs167, P39743): 0; SPOT intensity (Sho1, P40073): 67; SPOT intensity (Sla1-2, P32790): 2; SPOT intensity (Sla1-3, P32790): 4 |
